{"source": "patent US8053415B2", "about": "“Compounds having RD targeting motifs” (Washington University in St. Louis, priority 2005, dated 2011)", "key": {"[1]": {"assay": "Absorption and emission spectral properties in 20% aqueous DMSO", "assay_type": "physicochemical", "description": "The spectral properties of cypate and the cypate-peptide conjugates were determined in 20% aqueous DMSO, which solubilizes all the compounds. […] Absorbance measurements were performed with a Beckman Coulter DU 640 spectrophotometer. The fluorescence spectra were recorded on Fluorolog-3 fluorometer (HORIBA Jobin Yvon Inc., Edison, N.J.). To prepare the stock solutions, a high precision analytical balance was used to weigh >2 mg of each compound, which was dissolved in DMSO. The DMSO solutions were then diluted with water to obtain a final solution of 20% aqueous DMSO. An aliquot (known volume) of the solution was transferred to a cuvette with 1 μL precision micropipettes and diluted with 20% aqueous DMSO solvent mixture to give a working solution that absorbs at <1.0 absorbance unit. Aliquots of the working solution were diluted with 20% aqueous DMSO and used to determine the molar absorptivity of each compound. For fluorescence measurements, probe solutions with 0.1 absorbance units were used to minimize inner filter effects.\nPrevious studies have shown that this solvent mixture boosts fluorescence intensity and is well tolerated by rodents. Additionally, the dyes and their peptide conjugates are soluble in this solvent mixture, providing a common medium for spectral measurements.\nAbsorbance spectra were measured on a Beckman Coulter DU 640 UV-Visible spectrophotometer. Fluorescence spectra were recorded on a HORIBA Jobin Yvon Fluorolog-3 fluorometer. Stock solutions (1.0 mM) of the conjugates were prepared by dissolving each sample in 80% aqueous DMSO. UV-Vis and fluorescence measurements were carried out by adding 5.0 μL of the stock solutions via a micropipette into 3 mL of 20% aqueous DMSO in a quartz cuvette."}, "[2]": {"target": "T1, purified human αvβ3 integrin protein (Homo sapiens, UniProt P05106+P06756)", "T1 construct": "purchased Chemicon International, Inc. (Temecula, Calif.)", "assay": "Competitive αvβ3 integrin receptor binding assay with 125I-echistatin tracer (Example 2)", "conditions": "Table 3, read-out: IC50", "description": "The binding affinities were measured based on the competitive binding between purified αvβ3 integrin (ABI) and peptide ligands. Echistatin is a polypeptide that binds irreversibly with high affinity and specificity to ABI. ^125I-echistatin was used as a tracer in ABI binding assays.\nReceptor binding assays were performed by using purified human αvβ3 integrin protein from Chemicon International, Inc. (Temecula, Calif.). Assays were carried out using the Millipore Duropore membrane 96-well plates and the Millipore MultiScreen system (Bedford, Mass.). The 96-well membrane plate was blocked with 0.1% Polythylenimine blocking solution overnight at 4° C. ^125I-echistatin (50 nmol/L) was added to the binding buffer (50 mM Tris-HCl, pH 7.4, 100 mM NaCl, 2 mM CaCl2, 1 mM MgCl2, 1 mM MnCl2, 1% BSA) containing integrin protein (50 ng per well in 96-well membrane plate) and ligands in a total volume of 200 μL per well. The concentration range of ligand was between 0.01 μM and 100 μM. The mixtures were incubated for 2 h at room temperature, the ABI was then filtered by centrifugation at 1500 g and washed three times with 0.20 mL of ice-cold binding buffer. The filters containing radioactivity bound ABI were removed using a punch apparatus and counted using a Packard Cobra II Auto-gamma counter (Meriden, Conn.). […] Radiolabeling of ^125I-echistatin (Amersham Biosciences, Piscataway, N.J.) was carried out in a mixture of 0.25% BSA, 5.0% lactose, 0.21% citric acid and aprotinin (0.9 TIU/ml)."}, "[3]": {"test_system": "A549 tumor", "assay": "In vivo fluorescence optical imaging and ex vivo organ distribution in A549 tumor-bearing nude mice", "conditions": "for blocking of Cyp-GRD uptake in the tumor by co-injection: equimolar, 0.3 μmol/kg body weight", "description": "All in vivo studies were performed in compliance with the Washington University in St Louis Animal Study Committee's requirements for the care and use of laboratory animals in research. Nude mice (18-22 g) were anesthetized with xylazine/ketamine cocktail via intraperitoneal injection and placed in a supine position. The mice were injected subcutaneously with A549 cells (1×10^6) in the lower back of the mice. Tumor masses were palpable at 5-7 days post implant, which reached 5 mm in 10-15 days. Prior to injection of the probe, the mice were anesthetized as described above. A 29-gauge needle was used to inject the probes into the mouse via the lateral tail vein. The molecular probe (100 μL) was injected via the lateral tail vein at 0.3 μmol per kg of body weight. […] [SEQ ID NO:1] were constituted in a vial, and doses of 0.3 μmol per kg of body weight were injected into the A549 tumor-bearing mice.\nA non-invasive in vivo continuous wave fluorescence imaging apparatus was used to visualize the distribution and preferential tissue uptake of the cypate-peptide molecular beacons in the nude mice (Achilefu (2004) Technol. Cancer Res. Treat. 3:393-409, incorporated herein by reference). Light from two laser diodes of nominal wavelength 780 nm and nominal power of 50 mW was launched into a fiber optic bundle. Two laser diodes were used to produce as much uniform illumination of the whole animal or organ parts as possible. The nominal 50 mW of incident power was reduced to about 44 mW at the output of the fiber optic bundle. A de-focusing lens in position after the bundle expanded the beam such that nearly the whole animal was illuminated. A Photometrics CCD camera (16 bit, 1024×1024 pixel, back illuminated, thermoelectric Peltier cooled with forced air) was used to capture the emitted photons. An interference filter (830 nm) was mounted in front of the CCD camera input lens such that only emitted fluorescent light from the contrast agent was imaged. Real-time acquisition, display and data processing software (WinView/32) was used to obtain the optical image. The samples were dissolved in 20% aqueous DMSO and animals were injected with doses of 0.3 μmol/kg body weight via the lateral tail vein. Injected volumes were 100 μL for each mouse. Data analysis consisted of subtracting (pixel by pixel) the pre-injection image from the post injection images, and displaying the false color results. Integration of the relative fluorescence intensities of tumor vs. surrounding tissues indicated the extent of selective uptake of the contrast agent. At the completion of the study, the mice were euthanized and some organ parts were excised and rinsed with water. The tissues were placed under the CCD camera and the fluorescence emission from each organ was measured after excitation with the 780 nm laser sources. Tissue parts, instead of whole organs, were used to minimize problems associated with depth-dependent non-linear fluorescence emission. A statistical program in the WinView package was used to estimate the mean fluorescence intensity per organ part.\nIn vivo optical imaging studies using the cypate-peptide optical probes were performed and analyzed as described above in Example 1. […]"}, "[4]": {"test_system": "A549 cells", "assay": "Cell uptake, internalization and blocking of cypate-peptide conjugates (Example 3)", "assay_type": "cell-based, human", "description": "The ABI-positive cells were incubated with cypate or cypate-peptide conjugates at 37° C. for different time points. A549 cells were grown as detailed above. The human glioblastoma cell line, U87, and the human embryonic kidney cell line, HEK, were purchased from ATTC. U87 and HEK cells were maintained in minimum essential medium (MEM) with 2 mM L-glutamine and Earle's BSS adjusted to contain 1.5 g/L sodium bicarbonate, 0.1 mM nonessential amino acids, and 1.0 mM sodium pyruvate, with 10% fetal calf serum, 100 units/mL penicillin, and 100 units/mL streptomycin. Cells were grown on Lab-Tek slides. The medium was replaced and cells were incubated for various times up to 4 h at 37° C. in the presence of 1 μM of the dye conjugated peptides. For fluorescence microscopy, cells were visualized with an Olympus BX61W1 microscope using 775/50 excitation, 845/55 emission. For subcellular localization studies, 25 nM mitotracker green or 50 nM lysotracker red from Molecular Probes (Eugene, Oreg.) was added during the last 15 min or 60 min of incubation, respectively. […] Relative fluorescence was determined for five different areas of each experimental condition using the Slidebook software, and the results were averaged. The average relative fluorescence for each condition was normalized to cells treated with Cyp-GRD peptide."}, "[5]": {"test_system": "A549 cells", "assay": "CyQuant cytotoxicity and proliferation assay", "assay_type": "cell-based, human", "conditions": "48 hours", "description": "Cells were seeded at 2.5×10^4 cells/well and grown in 96 well plates in the presence of 0−1.5×10^−5 M cypate conjugated peptides for 24 or 48 hours. Cell proliferation was measured using the CyQuant proliferation assay from Molecular Probes (Eugene, Oreg.) per the manufacturer's protocol. Briefly, after incubation the microplate was inverted to remove the media and frozen at −70° C. overnight. The microplate was thawed at room temperature and 200 μL of the CyQuant GR dye/cell-lysis buffer was added to each well. […]\nBecause the Cyquant assay is based on the adherence of a dye to nucleic acids, the assay is a measure of both proliferative and cytotoxic effects."}, "[6]": {"test_system": "A549 and A427 cells", "assay": "Cellular internalization of cyclic cypate-RGD conjugates (Example 2)", "assay_type": "cell-based", "conditions": "1 μM, 1 h, 37° C.", "description": "A549 and A427 cells were purchased from ATCC and grown in […] tissue culture flasks or on Lab-Tek chambered slides in Ham's F12K medium with 2 mM L-glutamine supplemented with 1.5 g/L sodium bicarbonate, 10% fetal calf serum, 100 units/ml penicillin and 100 units/mL streptomycin.\nCells were grown to confluence on LabTek microscope slides. After washing with PBS, the cells were incubated with 1 μM of the target compounds for 1 h at 37° C. The medium was removed and the cells washed with PBS. The slides were mounted with anti-fading mounting medium. Cells were visualized with an Olympus microscope system (FV 1000) using 755 excitation and 845 nm emission filters."}}, "note": "pIC50: −log10 of the molar value. Where a SMILES comes first, the peptide text is derived from it."}
{"compound": "CC1(C)C(/C=C/C=C/C=C/C=C2/N(CCC(=O)NCC(=O)N[C@@H](CCCNC(=N)N)C(=O)NCC(=O)N[C@@H](CC(=O)O)C(=O)N[C@@H](CO)C(=O)N3CCC[C@H]3C(=O)N[C@@H](CCCCN)C(=O)O)c3ccc4ccccc4c3C2(C)C)=[N+](CCC(=O)O)c2ccc3ccccc3c21", "note": "[Cyp-RGD, Cypate-GRGDSPK]", "values": [{"measurement": "^abεmax", "setting": "[1]", "value": "213,726 cm^−1Mol^−1"}, {"measurement": "^abλmax", "setting": "[1]", "value": 789, "unit": "nm"}, {"measurement": "^emλmax", "setting": "[1]", "value": 811, "unit": "nm"}, {"measurement": "pIC50", "setting": "[2]", "value": 6.48}, {"measurement": "uptake / retention in A549 tumor", "setting": "[3]; 0.3 μmol per kg via lateral tail vein, fluorescence imaging", "value": "preferentially localized"}, {"measurement": "accumulation / retention in nontarget tissues", "setting": "[3]; 24 h post injection", "value": "primarily retained in the liver and the kidneys"}, {"measurement": "tumor uptake compared among the cypate-peptide conjugates", "setting": "[3]; 24 h post injection", "value": "low"}, {"measurement": "internalization / fluorescence intensity in cells", "setting": "[4]; 1 μM, 4 h, 37° C.", "value": "higher intensity than the linear GRD compound"}, {"measurement": "cytotoxicity (CyQuant), longer treatment", "setting": "[5]", "value": "some cytotoxicity"}]}
{"compound": "CC(C)C[C@@H]1NC(=O)[C@H](CC(=O)O)NC(=O)CNC(=O)[C@H](CCCNC(=N)N)NC(=O)[C@@H](NC(=O)CCN2C(=CC=CC=CC=CC3=[N+](CCC(=O)O)c4ccc5ccccc5c4C3(C)C)C(C)(C)c3c2ccc2ccccc32)CSSC[C@@H](C(N)=O)NC1=O", "note": "[Cypate-cyclo(CRGDLC)-NH2] (HELM PEPTIDE1{[CC1(C)C(/C=C/C=C/C=C/C=C2/N(CCC(=O)[*:2])c3ccc4ccccc4c3C2(C)C)=[N+](CCC(=O)O)c2ccc3ccccc3c21].C.R.G.D.L.C.[am]}$PEPTIDE1,PEPTIDE1,2:R3-7:R3$$$V2.0)", "values": [{"measurement": "cellular internalization", "setting": "[6]", "value": "internalized by the cells much better than some of the other compounds"}]}
{"compound": "CC(C)[C@@H]1NC(=O)[C@@H](Cc2ccccc2)NC(=O)[C@H](CC(=O)O)NC(=O)CNC(=O)[C@H](CCCNC(=N)N)NC1=O", "note": "[cyclo[RGDfV], reference compound]", "values": [{"measurement": "displacement of cypate-GRD from A549 tumor", "setting": "[3]; blocking peptide given 24 h postinjection of cypate-GRD", "value": "unable to displace"}, {"measurement": "blocking of Cyp-GRD uptake in the tumor by co-injection", "setting": "[3]; 24 h post injection", "value": "blocked the uptake"}, {"measurement": "blocking of Cyp-GRD uptake in the tumor by co-injection", "setting": "[3]; 24 h post injection, listed as cyclo(RGDfV)", "value": "significantly blocked"}, {"measurement": "blocking of cypate-GRD uptake / internalization in A549 cells", "setting": "[4]; pretreatment 15 min at 37° C., antibodies 10 μg/ml", "value": "blocked the uptake"}]}
